In paper PMC6328613:

How the values were obtained:
MBP-Scyl1 [1] = biological target: MBP-Scyl1 (UniProt Q96KG9); experiment: SPR; ProteOn XPR36, GLH chip; cross-linked anti-MBP antibody, MBP-Scyl1 captured (3000 RU), GST-GORAB variants as analyte at 30 nM, 100 µL/min, 120 s association, 600 s dissociation; 150 mM NaCl, 10 mM HEPES, 0.02% Tween-20, pH 7.4
MBP-Scyl1 [2] = biological target: MBP-Scyl1 (UniProt Q96KG9)

UniProt Q96KG9, sequence (Q96KG9 whole entry): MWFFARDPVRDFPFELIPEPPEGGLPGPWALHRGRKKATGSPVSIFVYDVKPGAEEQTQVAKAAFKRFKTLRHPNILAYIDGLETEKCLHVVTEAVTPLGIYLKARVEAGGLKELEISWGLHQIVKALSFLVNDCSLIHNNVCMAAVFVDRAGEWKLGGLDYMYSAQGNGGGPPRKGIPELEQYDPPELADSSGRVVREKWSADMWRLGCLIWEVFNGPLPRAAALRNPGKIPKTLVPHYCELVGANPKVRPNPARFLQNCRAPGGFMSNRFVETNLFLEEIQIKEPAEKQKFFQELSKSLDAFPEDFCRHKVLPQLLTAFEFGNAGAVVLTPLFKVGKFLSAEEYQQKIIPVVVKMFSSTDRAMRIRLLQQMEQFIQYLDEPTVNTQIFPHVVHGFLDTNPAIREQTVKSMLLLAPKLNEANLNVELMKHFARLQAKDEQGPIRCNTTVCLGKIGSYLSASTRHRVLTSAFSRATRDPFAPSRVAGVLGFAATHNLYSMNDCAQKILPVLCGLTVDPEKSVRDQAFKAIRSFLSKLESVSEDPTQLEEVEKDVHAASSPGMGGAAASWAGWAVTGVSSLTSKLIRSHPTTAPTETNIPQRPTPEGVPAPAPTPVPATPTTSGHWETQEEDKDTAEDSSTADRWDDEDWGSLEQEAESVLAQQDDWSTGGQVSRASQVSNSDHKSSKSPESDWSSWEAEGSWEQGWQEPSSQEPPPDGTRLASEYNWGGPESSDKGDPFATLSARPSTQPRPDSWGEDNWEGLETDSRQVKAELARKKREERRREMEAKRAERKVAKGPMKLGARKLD

GST-GORAB (natural protein)
Kd (MBP-Scyl1 [1]): 0.52 nM

GST-GORAB K190del (natural protein)
Kd (MBP-Scyl1 [1]): 0.52 nM

recombinant mouse coatomer isotype γ2ζ1 (from UniProt Q9QXK3 1-871; P61924 1-177; Q5XJY5 1-511; O89079 1-308; O55029 1-905) (complex)
recruitment of coatomer (δ-COP, ε-COP) to liposomes in the presence of myr-Arf1, with MBP-Scyl1 against MBP-IPIP27A (MBP-Scyl1 [2]): 2 fold
